Article PMC4285798

Key:
Assay in all cases: FRET or BRET; CFP (donor) and YFP (acceptor) fusions co-expressed from pETDuet-1 in E. coli; late exponential cells washed once with 0.9% NaCl, 150 μl in a 96 well plate, Tecan Infinite M200 Pro; excitation 435 nm, emission 466-610 nm; RCY = ratio of the emission maxima of eCFP (480 nm) and eYFP (525 nm); RCY 1.1–1.3 read as enrichment/interaction, 0.9–1.1 as approximation without interaction, <0.9 as no FRET
[1] = target: DivIVA-YFP (C. glutamicum)
[2] = target: DivIVAI18D-YFP (C. glutamicum)
[3] = target: DivIVAI18F-YFP (C. glutamicum)
[4] = target: DivIVAK20R-YFP (C. glutamicum)
[5] = target: DivIVAΔM-YFP (C. glutamicum)

RCY (CFP/YFP emission ratio, FRET) [1]	RCY (CFP/YFP emission ratio, FRET) [2]	RCY (CFP/YFP emission ratio, FRET) [3]	RCY (CFP/YFP emission ratio, FRET) [4]	RCY (CFP/YFP emission ratio, FRET) [5]	Substance
1.16	–	–	–	–	ParB-CFP (natural protein)
1.1	–	–	–	–	RodAE438G-CFP (natural protein)
1.15	1.14	1.27	1.11	1.19	RodA-CFP (natural protein)
